Results: the nanobody polyreactivity screen of Harvey et al. (2022)

Assay: yeast display, Sf9 membrane polyspecificity reagent, FACS + sequencing; frameworks hold sequencing errors
Summary of the method: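 After 36–48 hours of galactose induction, yeast (Saccharomyces cerevisiae BJ5465) displaying a synthetic nanobody library were stained at 4 °C for 1 hour with 10% biotinylated, detergent-solubilized Sf9 membrane reagent. Streptavidin microbeads enriched the stained cells before FACS sorting into low and high (top ~1%) gates on anti-HA and streptavidin fluorescence. Each clone's polyreactivity label reflects its gate of origin.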

Sequence | polyreactivity (PSR sort gate)
QVQLVESGGGLVQAGGSLRLSCDASGFIFNYYVMGWYRQAPGKERELVAAISRSGGSTYYADSVKGRFTISRDNAKNTVYLQKNSLKTEDTAVYYCAAEYGYGKRAYDSWGQGTQVTVSS | high polyreactivity
QVQLVESGGGLVQAGGSLRLSCAASGRTFPLNAMGWYRQAPGKERELVASITKSTGNTRYADSVKGRFTISRDNAKNTVYLQMNSLKPEDTAVYYCAARSYRDRYYWGQGTQVNVSS | high polyreactivity
QVQLEESGGGLVQAGGSLRLSCAASGRIFRPYAMGWYRQAPGKERELVAAISFSGGSTYYADSVKGRFTISRDNAKNTVYLQMNSLKPEDTAVYYCNKDLYRYPGYDYWGQGTQVTVSS | high polyreactivity
QVQLVESGGGLVQAGGSLRLSCAASGFTFSSNAMGWFRQAPGKERELVAAISFSGTRTYYADSVKGRFTISRDNAKKTVYLQMNSLKPEDTAVYYCAAGRHYGPLSGRTKGMEYWGQGTQVTVSS | high polyreactivity
QVQLVESGGGLVQAGGSLRLSCASSGSTFTTNALGWYRQAPGKERELVAAISRRGGSTYYADSVKGRFRISRDNAKNTVYLQMNSLKPEDTAVYYCNAVRAEYEFDYWGQGTQVTVSS | high polyreactivity
QVQLVESGGGLVQAGGSLRLSCAASGFTLQGYAMGWYRQAPGKERELVAAIRWIGTSTYYADSVKGRFTISRDNAKNTVYLQMNSLKPEDTAVYYCAAVVRRVRPEGSYNRWGHDYWGQGTQVTVSS | high polyreactivity
QVQLVESGGGLVQAGGSLRLSCAASGYTFLIYAMGGYRQAPGKERELVASISRSGGSTYYADSVKGRFTISRDNAKKTVYLQMNSLKPEDTAVYYCAARNPYRYFYNYEYWGQGTQVTVSS | low polyreactivity
QVQLVESGGGLVQAGGSLRLSCAASGYTDYAMGWYRQAPGKERELVATITSGDNTNYADSVKGRFTISRDNAKNTVYLQMNSPQPEDTAVYYCAADRIGRYRPYIGYWGQGTQVTVSS | low polyreactivity
QVQLVQSGGGLVQAGGSLRLSCAASGSTFPTNAMGWYRQAPGKERELVAAITSTGSTYADSVKGRFTISRDNAKNTVYLQMNSLKPEDTAVYYCAADTQWTTPYDYWGQGTQVTVSS | low polyreactivity
QVQLVDSGGGLVQAGGSLRLSCAASGFTIYANAMGWYRQAPGKERELVAAITSSSGRTYYADSVKGRFTISRDNAKNTVYLQMNSLIPEETAVYYCAARWSPYDYWGQGTQVTVSS | low polyreactivity
QVQLVESGGGLVQAGGSLRLSCAASGRTFYGNAMGWYRQAPGKERELVAAITFRTSSTYYADSVKGRFTISRDYAKNTVYLQMNSLKPDDTAVFYCAALWIYSGWRYDYWGQGTQVTVSS | high polyreactivity
QVQLVESGGGLVQAGCSLRLSCAASGGTFGRYAMGWYRQAPGTERELVASITTGGRTNYADSVKGRFTISRDNAKNTVYLQMNSLKPEDTAVYYCAKKRYGYPVPFYYWGQGTQVTVSS | high polyreactivity
QVQLVESGGGLVQAGGSLRLSCAASGIIFAIYAMGWYRQAPGKERELVAAITWRGGSTYYADSVKGRFTISRDNAKNTVYLQMNSLKPEDTAVYYCAAVTKSLYGYDYWGQGSQVTVSS | low polyreactivity
QVQLVESAGGLVQEGGSLRLSCAASGSTFGDNAMGWYSQAPGKERELVAAITSVGTTYYADSVKGRFTISRDNAKNTVYLQMNSLKPEDSAVYDCNADWSWYNYYDFDYWGQGTQVTVSS | low polyreactivity
QVQLVESGGGIVQAGGSLRLSCAASGFTFTYNTKGWYRQEPGKERELVAAISRSGGSTYYADSVKGRFTISRDNAKNTVYLQLNSLKPEDSAVYYCAKQRRDDNGGYWGLGTQVTVSS | high polyreactivity
QVQLVESGGGLVQAGGSLRLSCAASGFIFSSYAMGWYRQAPGKERELVAAISRSGGRTYYADSVKGRFTISRDNAKNTVYLQMNSLKPEDTAVYYCAAKRWWQYYWGQGTQVTVSS | high polyreactivity
QVQLVESGGGLVQAGGSLRLSCAASGRTFYFNAMGWYRQAPGKERELVAAISGGGRTYYADSVKGRFTISRDNAKNTVYLQMNSLKPEDTAVYYCNVRRWYTYPLEKSNYWGQGTQVTVSS | high polyreactivity
QVQRVESGGGLVQAGGSLRLSCAASGIIFQSYAMGWYRQAPGKERELVAAISRRGRRTYYADSVKGRFTFSRDNAKNTVDLQMTSLKPEDTAVYYCADRYRYAPYDYWGQGTQVTVSS | high polyreactivity
QVHLVESGGGLVQAGGSLRLSCAASGRTFWNYAMGWYRQAPGKEREFVAVIRFSDGSTYYADSVKGRFTISRDNAKNTVYLQMNSLKPDDTAVYYCAAKGPRRWGSGFDYWGQGNQVTVSS | low polyreactivity
QVQLVESGGGLVQAGGSLRLSCAASGRIFYGNVMGWYRQAPGKERELVAVITSGGNTNYADSVKGRFTISRDNAKNTVYLQMNSLKPEDTAVYYCATAVVAGVWGYDYWGQGTQVSVSS | low polyreactivity
QDQLVESGGGIVQAGGSLRLSCAASGRTFTAYAMGWYRQAPGKERELVAAISSSGGSTYYADSEKGRFTISRDNAKNTVYLQMNSLKPDDTAVYYCAALGGYRYGYDYWGQGTQVTVSS | high polyreactivity
QVQLVESGGGLVQAGGSLRLSCAASGLTFDPYALGWYRQAPGKERELVATISWSTSSTYYADSVKGRFTISRDNAKNTVYLQMNSLKPEDTAVYYCNAGYIESWFLQWIEYDYWGQGTQVTVSS | high polyreactivity

Sequence | polyreactivity (PSR sort gate)
QVQLVESGGGLVQAGGSLRLSCAASGRLFVYNAMGWYRQAPGKEREFVATITSSGGRTYYADSVKGRFTISRDNAKNTVYLQMNSLKPEDSAVYYCAARPQNNGRNPVYRYNYWGQGTQVTVSS | high polyreactivity
QVQLVESGGGLVQAGGSLRLSCAASGSTFRYYAMGWYRQAPGKERELVAAISGSGGSTYYADSVKGRFTISRDNAKNTVYFQMNSLKPEDTAVYYCNKVYARLVLSYDSWGQGTQVTVSS | high polyreactivity
QVQLVESGGGLVQAGGSLRLTCAASGRIFKYYAMGWYRQAPGKEREFVADISRRGGSTYYADSVKGRFTISRDNAKNTVYLQMNSLKPEDTAVYYCAAQSGYIMDYWGQGTQVTVSS | high polyreactivity
QVQLVESGGGLVHAGGSLRLSCAASGFTFDSNDKGWYRQAPGKERELVAAISTGGSTYYADSVKGRFTISRDNAKNTVYLQMNRLKPEDTAVYYCARDPPYPDTWYGYWGQGSQVTVSS | low polyreactivity
QDQLVESGGGLVQAGGSLRLTCAASGRICTYYAMGWYRKATGKERELVASISRSGGNTYYADSVKGRFTISRDNAKNTVYLQMNSLKPEDTAVYYCAAVYSRLDYWGQGTQVTVSS | high polyreactivity
QVQLVESGGGLVQAGGSLRLSCAASGFIFTKYTMGWYRQAAGKVRELVAAIDSGGNTYADSVKGRFTISRDNAKNTVYLHMNSLKPEDTAVYYCAVDGGEFSSYGYWGQGTQVTVSS | low polyreactivity
QVQLVESGGGLVQAGGSLRLSCAASGLIFSDYAMGWYRQAPGKERELVAAISGIGTRTSYADSVKGRFTISRDNAKNTVYLQMNSLKPEDTAVYYCAARYYGFPSTLKYDYWGQGTQVTVSS | high polyreactivity
QVQLVESGGGLVQAGGSLRLSCAASGSIFGGNAMGWYRQAPGKEREFVARITKRGGSTDYADSVKGRFTISRDNAKNTVYLQMNSLKPEDTAVYYCATGWTSKVHYRYGYWGQGTQVTVSS | high polyreactivity
QVHLVESGGGLVQAGGSLRLTCAASGLIFYDNMGWYRQAPGKERELVAAISSSGGSTSYADSVKGRFTISRDNAKNTVYLQMTSLKPVDTAVYYCAADSYPAYLGFVGFDYWGKGTQVTVSS | low polyreactivity
QVQLVESGGGLDQAGGSLRISCAASGRTFRNYAMGSYRQAPGKERELVPAISFSGGRTYYADSVKGRFTISRDNAKNTVYLQMNSLKPEDTAVYYCAKVSYYRGDGDEDYGYWGQGTQVPVSS | high polyreactivity
QVQLVESGGGLVQAGGSLRLSCAASGLTFTPYTMGWYRQAPGKERELVAAITSSAARTYYADSVKGRFTISRDKAKNTVYFQMNSLKPEDTAVYYCNRYRLPSGRYEYWGQGTQVTVSS | high polyreactivity
QVQLVESGGGLDQAAGSLRLTCAASGTTFEYYAMGLYRQAPAKEREFVAAITGSGASTYYADSVKGRFTISRDNAKNTVYLQMNSLKPEDTAVYYCIALSALAVEDGYWGQGTQVTVSS | low polyreactivity
QVQLVESGGGLVQAGGSLRLSCAASGFTFVSYAMGWYRQAPGKERELVASITWTGGSTYYADSVKGRFTISRDNAKNTVYLQMNSLKPEDTAVYYGAAQQFYSGILGRYYWGQGTQVTVSS | low polyreactivity
QVQLVETRGGLVQAGGSLRFSCAPSGRISLIYDMGWYRQAPAKERELVASITWSGDSTYYADSVKGRFTNSRDNAKNTVYLQMNSLKPVDTAVYYCAAVCWTYEYWEWYDYWGQVTQVTVSS | high polyreactivity
QVQLVESGGGLVQAGGSLRLSCAASGRTFPTNAMGWYRQAPGKERELVARITWSGGSTYADSVKGRFTISRDNAKNTVYFQMNSLKPEDTAVYYCAARGYKPQFPWRRYDYWGQGTQVTVSS | high polyreactivity
QVQLVESGGGLVQAGGSLRLSCAASGITFFTYGMGWYRQAPGKERELVASINWSGGTYYADSVKGRFTISRDNAKNTVYLQMNSLKPEDTAVYYCAAETSNSTQEMGYWGQGTQVTVSS | low polyreactivity
QVQLVESGGGLVQAGGSLRLSCAASGFTFSDNAMGWYRQAPGKEREFVATIDWSGGSTYYADSVKGRFTISRDNAKNTVYLQMNSLKPDDTAVYYCAATFRYSTSQYLQGYDYWGQGTQVTVSS | low polyreactivity
QVQLVESGGGLVQAGGSLRLSCAASGSTFFQYAMGWYRPAPGKERELVAAITTSGGRTYYADSVKGRFTISRDNAKNTVYLQMNSLKPEDTAVYYCAGYNYWGQGTQVTVSS | high polyreactivity
QVQLVESGGGLVQAGGSLRLSCAASGITFKTYDMGRYRQAPGKERELVATINRGSRTNYADSVKGRFTISRDNAKNTVYLQMNSLKPEDTAVYYCSAHDTTFIPSPDGDYLGQGTQVTVSS | low polyreactivity
QVQLVESGGGLVQAGGSLRLSCAASGFILYFKAMGWYRQAHGKERELVAAITSDGGSTYYADSLKGRFTISRDNAKNTVYLQMNSLKPEDTAVYYCAADASTWYTEEYWGQGTQVTVSS | low polyreactivity
QVQLVESGGGLVQAGGSLSLSCADSGLTFRKYAMGWYRQAPGKERELVAAISWSGGSTYYANSVKGRFTISRDNAKNTVYLQMNSLKPEETAVYYCAAVPVHTGSMYWGFTNGYDYWGQGTQVTLSS | low polyreactivity
